{
  "source": "paper PMC3702382",
  "about": "(Biochemistry, 2013)",
  "biological_target": "the molecule itself",
  "assay": "TOXCAT",
  "data": [
    {"protein": "NRASLALTLLLLAILVWLMYSLWFGILIN (domain or fragment)", "note": "[FtsB transmembrane domain TOXCAT construct, Gln 16 to Met]", "values": [
      {"measurement": "CAT activity, % of WT", "result": "22 % of WT"}
    ]},
    {"protein": "NRASLALTLLLLAILVWLNYSLWFGILIN (domain or fragment)", "note": "[FtsB transmembrane domain TOXCAT construct, Gln 16 to Asn]", "values": [
      {"measurement": "CAT activity, % of WT", "result": 67, "unit": "%"}
    ]}
  ]
}
